# Reference: the nanobody polyreactivity screen of Harvey et al. (2022)
# Experiment: yeast display, Sf9 membrane polyspecificity reagent, FACS + sequencing; frameworks hold sequencing errors
# Summary of the method: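 Nanobodies came from a synthetic yeast display library in Saccharomyces cerevisiae BJ5465, induced with galactose for 36–48 hours and stained for 1 hour at 4 °C with 10% biotinylated, detergent-solubilized Sf9 membrane reagent. Cells were enriched on streptavidin microbeads and then FACS-sorted, with low and high (top ~1%) gates set on anti-HA fluorescence for expression and streptavidin fluorescence for reagent binding. Each polyreactivity label reflects the gate a clone came from. Genes were amplified by colony PCR, sequenced by MiSeq 2 × 250 and filtered by CDR length.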
row,Sequence,polyreactivity (PSR sort gate)
1,QVQLVESGGGLVQAGGSLRLTCAASGSIFGAKAIGWYIQAPGKERELVAALTWSDTSTYYADSVKGRFTISRDNAKNTVYLQMNSLKPEDTAVYYCAAEYEWVTWGWGYYYWGQGTQVTVSS,high polyreactivity
2,QVQLVESGGGLVQAGGSLRLTCAASGSIFGYAMGWSRQAPGKERELVAALSFSGVSTYYAYSVKGRFTISRDNAKNTVYLQMNSLKPEDTAVYYCNAYSDGDEDYWGQGTQVTVSS,low polyreactivity
3,QVQLVESGGGLVQAGGSLRLTCAASGSIFTYYVRGWYRQAPGKEMELVARISRRGGSTYYADSVKGRFTISRDNAKNTVYLQMNSLKPEDTAFYYCNRVFYYDRDNYDYWGQGTQVTVSS,high polyreactivity
4,QVQLVESGGGLVQAGGSLRLTCAASGSIFYRYVMGWYRQAPGKEMELVAVISGSGGNTYYADSVKGRFTISRDNAKNTVYLQRNSLTPDDTAVYYCAASWYFLPTQTRPYYGYYYWGQATQVTVSS,high polyreactivity
5,QVQLVESGGGLVQAGGSLRLTCAASGSTFAFYAMGWYRQAPGKERELVAAITLIGGNTYYADSVKGRFTISRDNAKNTVYLQMYSLKPEDTAVYYFAAGGYYVRYPKSWYNYWGQGTQVTVSS,low polyreactivity
6,QVQLVESGGGLVQAGGSLRLTCAASGSTFGVYAMGWYRQAPRKDRELFAAISSSTGSTYYADSVKGRFTISRHKAKNTVYLQRNSLKPEDTAVYYRAAAGYGKVRGDYWGQGTQVTVSS,low polyreactivity
7,QVQLVESGGGLVQAGGSLRLTCAASGSTFHSNAMGWYREAPGKERELVAAISQGGGRTYYADSVKGRFTISRDNAKNTVYLQMNSLKPEDTAVYYCNRRTRGLIDGGMDYWGQGTQVTLSS,low polyreactivity
8,QVQLVESGGGLVQAGGSLRLTCAASGSTFINYAMGWYRQAPGKERELVAAYADSVKGRFTISRDNAKNTVYLQMNSLKPEDTAVYYCNAVTGEWGQGTQVTVSS,low polyreactivity
9,QVQLVESGGGLVQAGGSLRLTCAASGSTFITYAMGWYRQAPGKERELVAAIRVIGGRTYYADSVKGRFTISRDNAKNTVYLQMNSLKPEDTAVYYCAARPYKSYGYHYSYDYWGQGTQVTVSS,high polyreactivity
10,QVQLVESGGGLVQAGGSLRLTCAASGSTFQTYVMGLYIQAPGKERELVAAISSGGSTNYADSVKGRFTISRDNAKNNVYLLMKSLKPEDTAVYYCAAVYWAWGKNEYEYWGQGTQVTVSS,low polyreactivity
11,QVQLVESGGGLVQAGGSLRLTCAASGSTFQVNDMGWYRQAPGKDRELLASISGGSSTNYADSVKGRFTISRDNAKNTVYLQMHSLQPEDTAVYYCAAYYLSGLRVAYDYWGQGPQVTVSS,low polyreactivity
12,QVQLVESGGGLVQAGGSLRLTCAASGSTFTGYAMGWSIQAPGKERELVAGITGSGGSTYYADSVKGRFTISRDNAKNTVYLQMNSLKPEDTAVYYCNAVHWGGTYWGLDYWGQGTQVTVSS,low polyreactivity
13,QVQLVESGGGLVQAGGSLRLTCAASGSTFTVNGMGWYRQAPGKERELVASITWSGGSTYYADSVKGRFTISRDNAKITVYLQMNSLKPEDTAVYYCAADEKLYITGYDYWGQGTQVTVSS,low polyreactivity
14,QVQLVESGGGLVQAGGSLRLTCAASGSTFVPYVMGWYRQAPGKERELVAVITWTGGSTYYADSVKGRFTISRDNAKNTVYLQMNSLKPEDTAVYYCAAEYSPWFYFEQYDYWGQGTQVTVSS,low polyreactivity
15,QVQLVESGGGLVQAGGSLRLTCAASGSTFVWYGMGWYRQAPGKEREFVAAISTSGGRTYYADSVKGRFTISRDNAKNTVYLQMNSLKPEDTAVYYCATRPYFTYRWYDYWGQGTQVTVSS,high polyreactivity
16,QVQLVESGGGLVQAGGSLRLTCAASGSTFWSNSMGWYRQAPGKERELVAAISSRGGSTYYADSVKGRFTISRDNAMNTVYLQMNSLKPEDTAVYYCAARSKRLAHDYWGQGTQVTVSS,high polyreactivity
17,QVQLVESGGGLVQAGGSLRLTCAASGSTFYSYVMGWYRQAPGKERELVAAIDYSGDSTYYADSVKGRFTISRDNAKNTVYLQMNSLKPEDTAVYYCAKDGVWYYSGTGMDYWGHGTQVTVSS,low polyreactivity
18,QVQLVESGGGLVQAGGSLRLTCAASGSTLWYYAMGWYRQAPGKERELVADITSSGNTNYADSVKGRFTISRDNAKNTVYLQMNSLKPEDTAVYYCAADSANYQWYLSWQKDDYWGQGTQVTVSS,low polyreactivity
19,QVQLVESGGGLVQAGGSLRLTCAASGTIFVRLDMGWYRQAPGNEREFVATIGSGSSTYYADSVKGSFTISRDNVKNTVYLQMNSLKPEDTAVYYCAVSAAEQSRHYYWDQGTQVTVSS,low polyreactivity
20,QVQLVESGGGLVQAGGSLRLTCAASGYIFRLNAMGWYRQAPGKEMELVAGISPGGRTNYADSVKGRFTISRDNAKNTVNLQMNSLKPEDTAVYYCAAAWNTAYWVGSDSLGGGYWGLGTQVTVSS,low polyreactivity
21,QVQLVESGGGLVQAGGSLRLTCAASGYTLSVNAKGWSRQAPGKEMDLVATNDFGGGSTYYADSVKGRFTISRDNAKNTVYLQMNSLKREDTAVYYCATDGGAAWGRYYWDYGYWGQGTQVTVSS,low polyreactivity

row,Sequence,polyreactivity (PSR sort gate)
1,QVQLVESGGGLVQAGGSLRLTCDASGGIFAVNVMGWYRQAPWKERELVAAITSTGSTYYADSVKGRFTISRDNAKNTVYLQMNSLTPEDTAVYYCAADYVYYDSYDDTVFGYDYWGQGTQVTVSS,high polyreactivity
2,QVQLVESGGGLVQAGGSLRLTCDASGSIFSVYAMGWYRQAPGKERELVAAITSSGGITYYADSVKGRFTISRDNSKNTVYLQMNSLKPEDTAVYYCATDRVLHYWVLSMDYWGQGTQVTVSS,low polyreactivity
3,QVQLVESGGGLVQAGGSLRLTCDASGSIIRLYAMVWYRQAPGKERELVDAISYNSGTTYYADSVKGRFTISRDNAKNTVYLQMNSLKPADTAVYYCAARRYYNYDWRQGTQVTVSS,high polyreactivity
4,QVQLVESGGGLVQAGGSLRLTCPASGGIFYDYSMVWYRQAPGKERQLVAAITRSGDSTYYADSVKGRFTISRDNAKNTVYLQMNSLKPEDTAVYYCAADIWSSDYEEFYYWVQGTQVTVSS,low polyreactivity
5,QVQLVESGGGLVQAGGSLRLTSAASGFTFYPYAMGWYRQATGKEMELVAAINSGGSTYYADSVKGRFTISRDNAKNSVYLQMNSLKPEDTAVYYCAAYGKRGAVAFYYWGQGTQVTVSS,high polyreactivity
6,QVQLVESGGGLVQAGGSLRLTSAASGRIFYNYAIGWYRQAPGKERELVAAISSSGGSTYYADSVKGRFTISRDNAKNTVYVQMNSLKPEDTAVYYCAAYSYGLYYTYDYWGQGTQVTVSS,high polyreactivity
7,QVQLVESGGGLVQAGGSLRLTSAASGRTFGTNPMGWYRQETGKERELVDAISRRGGSTYYADSVKARFTISRDNAKNTVNLQMNSLKPEDTAVYYCAKTIGLKHEDEYWGQGTQVTVSS,low polyreactivity
8,QVQLVESGGGLVQAGGSLRLTSAASGSIFQNYAMGWYRQAPGKERQLVAVIDDSGGITYYADSVKGRFTISRDNAKNTVYLEMNSLKPEDTAVYYCARNVNAKKVLGGFDSWGQGTQVTVSS,low polyreactivity
9,QVQLVESGGGLVQAGGSLRLTSAGSGRIFDYNAMGCYRQAPGKERELVAAITYSGGSTYYADSVKGRFTISRDNAKNTVYLQMNSLKPEDTAVYYCAAPDPYYHYRYPWQSRYDYNYWGQGTQVTVSS,low polyreactivity
10,QVQLVESGGGLVQAGGSLRLTSAGSGRIFVPYAMGCYRQAPGKERELVATITFGGGRTYYADSVKGRFTISRDNAKTTVFLQMNSLKPEDTAVYYCNAEGWYSVEYDYWGQGTQVTVSS,low polyreactivity
11,QVQLVESGGGLVQAGGSLRLTWAASGFILGYYAMGWYRQAPGKERELLPGISRSGGSTYYADSVKGRYTISRDNAKNTVYLQMNSLKPEDTSVYYCAKYPPYYTAYGWKYVYWGQGTQVTLSS,high polyreactivity
12,QVQLVESGGGLVQAGGSLRSSCAASGSIFQYYALGWYRQAPGNERELVAAISSGGRTNYADSVKGRFTISRDNAKNTVYLQMNSLKPEDTAVYYCAAARYYYQVYRWEYDYWGQGTQVTVSS,high polyreactivity
13,QVQLVESGGGLVQAGGSLRVSCAASGFTFDYYAMGWYRQAPGKEWEFVAAISSRGDDTYYADSVKGRFTISRDNAKNTVYLQMNSLKPEDTAVYYCAKVWRYGRYEYGYWGHGTQVTVSS,high polyreactivity
14,QVQLVESGGGLVQAGGSLRVSCAASGFTFGYYGMGWYRQAPGKERELVAAISWSGGSTYYADSVKGRFTISRDNAKYTVYLQMNSLKPEVTAVYYCNADYAGFYQRRYIEDDYWGQGTQVTVSS,low polyreactivity
15,QVQLVESGGGLVQAGGSLRVSCAASGFTFYQYGMGWYRQAPGKERELVATSTSGGRTNYADSVKGRFTISRDNAKNTVYLQMNSLKPEDTAVYYCNKLPYYPRVGRIGRYYYWGQGTQVTVSS,high polyreactivity
16,QVQLVESGGGLVQAGGSLRVSCAASGINFDYYVMGWYRQAPGKERELVAAISRSGDRTNYADSVKGRFTSSRDHEKYTVFLLMNSLKPEDTAVYYCAARVRIRGGGYDYWGQGTQVTVSS,high polyreactivity
17,QVQLVESGGGLVQAGGSLRVSCAASGNTFGPYAMGWYRQAPGKERELVAAISSGGSTNYADSVKGRFTISRDNAKNTVYLQMNSLKPEDTAVYYCARDAFSGSDFSYASIEYDYWGQGTQVTVSS,low polyreactivity
18,QVQLVESGGGLVQAGGSLRVSCAASGRIFTIYAMGWYRQAPGTEREVVAAISDRGTRTYYADSVKGRFTISRDNAKNTVYVQMNSLKPEDTALYYCATDALYTYGYDYWGQGSQVTVSS,low polyreactivity
19,QVQLVESGGGLVQAGGSLRVSCAASGRIFVDYAMGWYRQAPGKERELVAAISRRGGSTYYADSVKGRFTISRDNAKNTVYLQMNSLKPEDTAVYYCNALVNSGGGYGATEYDYWGQGTQVTVSS,high polyreactivity
20,QVQLVESGGGLVQAGGSLRVSCAASGRILPFYAMGWYRQAPGKERELVATISWTSDSTYYADSVKGRFTISRDNAKNTVSLQMNSLKPEDTAVYYCAREYTYTYASTVIYDHWGQGTQVTVSS,low polyreactivity
